Results reported in article PMC3636079, “Determinants at the N- and C-termini of Gα12 required for activation of Rho-mediated signaling” (Journal of Molecular Signaling, 2013).

How the values were obtained:
[1] = biological target: T1, GST fusion of amino acids 320-606 of LARG (GST-LARG-RH) (UniProt Q9NZN5 320-606); assay: pull-down; GST fusion (or GST alone) immobilised on glutathione-sepharose; HEK293 detergent-soluble extract diluted to 0.05% polyoxyethylene-10-lauryl ether in 50 mM HEPES pH 7.5, 1 mM EDTA, 3 mM dithiothreitol, 10 mM MgSO4; about 2 h at 4°C; three washes; immunoblot with anti-Gα12 or anti-myc; band intensities given as pulldown:load ratio; conditions: one partner purified
T1 construct: leukemia-associated RhoGEF (LARG), RGS-homology (RH) domain, amino acids 320-606; plasmid provided by Tohru Kozasa
T1 sequence (looked up): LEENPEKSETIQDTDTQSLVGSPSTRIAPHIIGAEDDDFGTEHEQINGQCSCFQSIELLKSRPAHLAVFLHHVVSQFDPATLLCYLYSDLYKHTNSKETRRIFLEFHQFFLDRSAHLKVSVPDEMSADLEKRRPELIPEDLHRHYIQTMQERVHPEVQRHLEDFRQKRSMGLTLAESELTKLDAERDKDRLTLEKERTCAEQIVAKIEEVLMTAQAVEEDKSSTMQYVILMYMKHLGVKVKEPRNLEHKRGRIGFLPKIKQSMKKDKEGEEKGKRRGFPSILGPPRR

[2] = biological target: T2, GST fusion of amino acids 1-252 of p115RhoGEF (GST-p115-RH) (UniProt Q92888 1-252); assay: as above; conditions: one partner purified
T2 construct: p115RhoGEF, N-terminal 252 amino acids holding the RH domain; subcloned by PCR from a plasmid with an N-terminal myc tag on p115RhoGEF 1-252; also called RGS
T2 sequence (looked up): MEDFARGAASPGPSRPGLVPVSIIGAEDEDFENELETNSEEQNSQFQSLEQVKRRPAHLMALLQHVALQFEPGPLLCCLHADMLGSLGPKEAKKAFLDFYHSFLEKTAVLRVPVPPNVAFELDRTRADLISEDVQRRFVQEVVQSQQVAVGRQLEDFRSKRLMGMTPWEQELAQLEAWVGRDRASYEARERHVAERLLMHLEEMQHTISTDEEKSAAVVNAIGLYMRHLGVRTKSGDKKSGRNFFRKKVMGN

B1: myc-Gα12^QL Glu^31/33Arg (natural protein, UniProt P27600 1-379, looked up)
chain: MSGVVRTLSRCLLPAEAGARERRAGAARDARRRARRRSRDIDALLARERRAVRRLVKILLLGAGESGKSTFLKQMRIIHGREFDQKALLEFRDTIFDNILKGSRVLVDARDKLGIPWQHSENEKHGMFLMAFENKAGLPVEPATFQLYVPALSALWRDSGIREAFSRRSEFQLGESVKYFLDNLDRIGQLNYFPSKQDILLARKATKGIVEHDFVIKKIPFKMVDVGGLRSQRQKWFQCFDGITSILFMVSSSEYDQVLMEDRRTNRLVESMNIFETIVNNKLFFNVSIILFLNKMDLLVEKVKSVSIKKHFPDFKGDPHRLEDVQRYLVQCFDRKRRNRSKPLFHHFTTAIDTENIRFVFHAVKDTILQENLKDIMLQ
notes: Gα12 with Q229L and Glu31 and Glu33 changed to Arg; also called double charge substitution mutant; source: HEK293, transfected, in detergent-soluble extract
pulldown:load ratio, percent of myc-Gα12^QL [1]: ~18%
pulldown:load ratio, percent of myc-Gα12^QL [2]: ~86%
